Target: His-YY1 full length (UniProt P25490 1-414)
Test: EMSA; unlabelled probe competes; anti-His supershift; EMSA buffer 10% glycerol, 75 mM KCl, 10 mM HEPES (pH not stated), 5 mM MgCl2; 30 C, 30 min (Fig 7F: 15 min methylation + 15 min binding); 5% native PAGE in 0.5X TBE at 4 C
Details: protein: recombinant; tags: His (pET28b); label: 32P 5' end label on one strand; blunt

Chain of His-YY1 full length (P25490 whole entry): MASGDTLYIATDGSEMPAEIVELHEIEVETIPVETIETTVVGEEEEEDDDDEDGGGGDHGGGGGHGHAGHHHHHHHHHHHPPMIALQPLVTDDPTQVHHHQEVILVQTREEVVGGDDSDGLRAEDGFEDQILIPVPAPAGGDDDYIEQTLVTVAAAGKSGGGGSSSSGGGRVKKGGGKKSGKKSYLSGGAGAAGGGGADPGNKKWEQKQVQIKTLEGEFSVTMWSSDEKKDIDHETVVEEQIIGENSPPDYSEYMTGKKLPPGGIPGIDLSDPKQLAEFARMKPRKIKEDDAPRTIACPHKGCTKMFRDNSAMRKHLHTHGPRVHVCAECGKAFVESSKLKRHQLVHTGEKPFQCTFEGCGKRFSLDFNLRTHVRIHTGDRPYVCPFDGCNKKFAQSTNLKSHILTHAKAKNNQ

B1: CARM1proYY1_BS1 (dsDNA)
DNA 1: GGGACCTCTGGATCCCATGGTTGGATGGCTGGGGGGTGGA
DNA 2: TCCACCCCCCAGCCATCCAACCATGGGATCCAGAGGTCCC
B1: binds.

— article PMC6557205, “Functional interplay between YY1 and CARM1 promotes oral carcinogenesis”
